Data as given in patent US20240352156A1 (BIOGRAPH 55, published 2024).
Values belong to the binder of their own block, whether it stands above or below them.

Columns and labels:
[1] = biological target: T1, CD38 (antigen in solution, Octet assays) (human, UniProt P28907 43-300, limits assumed); test: BLI (OctetRed96), antibody on anti-hIgG Fc capture sensor
T1 construct: also called Cluster of Differentiation 38; ADPRC1
Procedure: (§1) The binding affinities of parental and bispecific antibodies were determined using bio-layer interferometry. Binding experiments were performed on OctetRed96 at 25° C. using an assay Buffer consisting of 0.1% BSA, 1×PBS, 0.02% Tween-20, 0.05% NaN3. The antibodies were loaded onto Anti-hIgGFc Capture biosensors for 300 seconds. The ligand-loaded sensors were dipped into a series dilution (starting at 300 nM: two-fold series dilution for CD19 and three-fold series dilution for CD38) of the antigens for association (200 seconds for CD19 and 150 seconds for CD38) followed by dissociation (600 seconds for CD19 and 400 seconds for CD38). Kinetic constants were calculated using a monovalent (1:1) binding model.

[2] = biological target: T2, CD38 on cells (CD38-transfected HEK293, Daudi, REH) (human, UniProt P28907 1-300); test: flow cytometry on CD38-transfected HEK293 cells, MFI against test article concentration
T2 construct: whole, on cells; also called HEK293-CD38

[3] = biological target: T3, CD19 (antigen in solution, Octet assays) (human, UniProt P15391 20-291, limits assumed); test: BLI (OctetRed96), antibody on anti-hIgG Fc capture sensor
T3 construct: also called Cluster of Differentiation 19; B4
T3 sequence (looked up): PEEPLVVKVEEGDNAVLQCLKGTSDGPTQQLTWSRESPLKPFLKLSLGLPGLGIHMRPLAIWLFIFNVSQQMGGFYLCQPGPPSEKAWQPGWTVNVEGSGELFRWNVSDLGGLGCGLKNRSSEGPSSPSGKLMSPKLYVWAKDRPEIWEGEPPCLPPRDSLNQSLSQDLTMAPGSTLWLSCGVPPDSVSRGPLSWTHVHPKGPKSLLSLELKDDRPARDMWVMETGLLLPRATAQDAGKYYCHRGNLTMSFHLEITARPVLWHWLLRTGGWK
Procedure: as §1

- binding result [2]: no binding (tested: 133 nM)
B1: 851A = anti-CD19 3C10 (antibody, V domains shown)
VH: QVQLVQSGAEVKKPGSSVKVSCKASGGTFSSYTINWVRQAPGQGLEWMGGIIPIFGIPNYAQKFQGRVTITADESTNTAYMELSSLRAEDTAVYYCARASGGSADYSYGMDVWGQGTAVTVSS
VL: DIQMTQSPSSLSASVGDRVTITCRASQGISSWLAWYQQKPEKAPKSLIYAASSLQSGVPSRFSGSGSGTDFTLTISSLQPEDFATYYCQQYKRYPYTFGQGTKLEIKR
notes: captured by anti-human IgG Fc
- binding result [1]: no binding (tested: antigen dilutions starting at 300 nM)

B2: 851C = anti-CD38 003 heavy chain & anti-CD19 3C10 light chain (antibody, V domains shown)
VH: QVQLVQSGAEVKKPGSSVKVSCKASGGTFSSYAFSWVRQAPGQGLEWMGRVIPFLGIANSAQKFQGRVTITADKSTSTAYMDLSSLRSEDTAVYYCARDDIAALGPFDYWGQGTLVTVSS
VL: B1 VL
- binding result [3]: no binding (tested: antigen dilutions starting at 300 nM)
